One series addresses T1, MGL from C. sporogenes (Clostridium sporogenes, UniProt A0A7X5SZI3).
T1 construct: gene megL
The format is biochemical. As to conditions: read-out: MGL from C. sporogenes / Кm.

The target of the next series is T2, MGL from C. tetani (Clostridium tetani, UniProt Q890V5).
T2 construct: gene CTC_02530
As to conditions: read-out: MGL from C. tetani / Кm.

For a further series, the target named is MGL from P. gingivalis (Porphyromonas gingivalis, UniProt Q7MX71). As to conditions: read-out: MGL from P. gingivalis / Кm.
The next series has as its system CSCC[C@H](N)C(=O)O. Briefly: purified protein.
In a further series the test system is CCSC[C@H](N)C(=O)O. Kind of series: purified protein.
Series [1] has as its system C[S+]([O-])CC[C@H](N)C(=O)O. Briefly: purified protein.
For series [2], the system named is N[C@@H](CSCc1ccccc1)C(=O)O. Briefly: purified protein.

`CCSCC[C@H](N)C(=O)O` [S-Et-L-Hcy]: the values for the Km on MGL from C. sporogenes, on MGL from C. tetani and at MGL from P. gingivalis were 278 µM, 545 µM and 930 µM, respectively.

For the compound “MGL from C. tetani (Clostridium tetani E88)”, in the series with CSCC[C@H](N)C(=O)O, the Km worked out at 0.947 mM and the kcat/Km is 12700 M⁻¹ s⁻¹.

As to “MGL from P. gingivalis (Porphyromonas gingivalis W83)”, the Km with CCSC[C@H](N)C(=O)O is reported as 2.17 mM; in the series on CSCC[C@H](N)C(=O)O, 1.77 mM; in series [1] it was 12.22 mM; in series [2], 1.47 mM. The kcat/Km with CCSC[C@H](N)C(=O)O is 3710 M⁻¹ s⁻¹; in the series on CSCC[C@H](N)C(=O)O, 2200 M⁻¹ s⁻¹; in series [1] it was 413 M⁻¹ s⁻¹; in series [2], 3940 M⁻¹ s⁻¹.

The values are drawn from publication PMC3848071 (Acta Naturae, 2013).
